Results as given in paper PMC11843475, “Taming interleukin‐12: Engineering of bispecific antibody‐based IL‐12 mimetics with biased agonism capacities” (Protein Science : A Publication of the Protein Society, 2025).

Biological target: T1, recombinant human (rh) His-tagged IL-12Rβ1 ECD (human, UniProt P42701 24-545)
T1 construct: Interleukin-12 receptor subunit beta-1, human, extracellular domain; Loaded on anti-Penta His (HIS1K) biosensors through its His tag; also called (rh) IL-12Rβ1; IL-12 receptor subunit β1; source: bought: Acro Biosystems (ILB-H52H9)
Assay: BLI; epitope binning / competition: 5 μg/mL His-tagged (rh) IL-12Rβ1 ECD loaded on HIS1K biosensors in PBS; first association 200 nM for 300 s, then second association 200 nM for 300 s with a 100 nM spike of the first molecule; kinetics buffer (PBS + 0.1% Tween-20, 1% BSA); 25°C, 1000 rpm; competition with rh IL-12 analysed in the same combinatorial manner
Conditions: both partners purified

B1: recombinant human (rh) IL-12 (complex)
chain 1: RNLPVATPDPGMFPCLHHSQNLLRAVSNMLQKARQTLEFYPCTSEEIDHEDITKDKTSTVEACLPLELTKNESCLNSRETSFITNGSCLASRKTSFMMALCLSSIYEDLKMYQVEFKTMNAKLLMDPKRQIFLDQNMLAVIDELMQALNFNSETVPQKSSLEEPDFYKTKIKLCILLHAFRIRAVTIDRVMSYLNAS
chain 2: IWELKKDVYVVELDWYPDAPGEMVVLTCDTPEEDGITWTLDQSSEVLGSGKTLTIQVKEFGDAGQYTCHKGGEVLSHSLLLLHKKEDGIWSTDILKDQKEPKNKTFLRCEAKNYSGRFTCWWLTTISTDLTFSVKSSRGSSDPQGVTCGAATLSAERVRGDNKEYEYSVECQEDSACPAAEESLPIEVMVDAVHKLKYENYTSSFFIRDIIKPDPPKNLQLKPLKNSRQVEVSWEYPDTWSTPHSYFSLTFCVQVQGKSKREKKDRVFTDKTSATVICRKNASISVRAQDRYYSSSWSEWASVPCS
notes: Interleukin-12 p35 alpha-subunit (IL12A), human; Interleukin-12 p40 beta-subunit (IL12B), human; Heterodimeric cytokine of p35 and p40; also called wild-type IL-12; interleukin-12; source: bought: Acro Biosystems
binding result: binds
